Assay: soluble on expression in E. coli; label from the status in PepcDB or PDB records

With “MGSDKIHHHHHHMGGLQNVRSAALIGHNGSGKSLLLAQILYKSGLIDKADTKYVDYDPVEEEKGASFSSHVASLEWKGKKVYLIDTPGFSDFISEVINGIFVSENIISVVNAVAGVEIQTERTWNMADEMKKPIIVFVNQMDKERANFENVVAELKERFSRKIVPVVVPIGAAENFEGVVDLLKKKAYRYDGDKVQEEDMPESFNDMRSEILEDIVEQDEELMMRYLDGEDIGYDELMRVLKEGYKKGEIVPVLSGSALKGIGLDLLLDYLGDIGVSPEEAPSYKALLEDGTEIEVKFSEEEPFCAYIFKSVVDQFVGRITFAKVIAGVLRPGDTVVNVQKDVTEKVGHVYVPILKQQKEVESAGPGEIVVLLKLKEGAVGETLAHRDRRVKIVPPAFPEPMFSRSVHPKSKSDIDKISSGLSRLSDSDPTFVWEYDPETGETVVSGLGAMHLDVMIERLKKIFGVDVEVGKPKIAYRETITTTAVAEHKHKKQTGGHGQYGHVKIQLEPLPRGQGYEFVDKIVGGVIPRNFIPSVDKGIREAMKKGVLAGYPVTDVRVILFDGSYHEVDSSDISFQIAAIQAFKKGMEAAKPVILEPIMEVEVFVPEENAGDVMGEISSRRGRPLGMEPSGKGMVKVKAEVPLAEMLDFSSKLSSITSGRGYFTMRFQRYEIVPPNIQEKIIEERRREMQEQEK” as the sequence, how does the “soluble on expression in E. coli” value read?
The value was “not soluble”.

For “MKKYADDSLMLHTDLYQINMVETYWEDRMHERRAVFEVFFRKLPFGNGYAVFAGLERVIQFLQQFRFSDSDIDYLRQELGYRDDFLDYLRTLRFTGTVRSMREGEVVFANEPIMRIEAPLAEAQLIETAILNIINFQTLIATKASRIKHILGDEPALEFGSRRAQEMDAALWGARAAYIGGIEATSNVRAGKLFGIPVAGTHAHSMIQAYQDEYTAFLKYARRHKDCVFLVDTYDTLKSGVPNAIRVAKELGDQINFIGIRIDSGDLAYLSKEARKMLDEAGFPNAKIFASNDLDEDTILNLKSQGAKIDVWGIGTKLITAYDQPALGAVYKMVAIENERGEMVDTIKISGNPEKVTTPGLKRVYRIVNKINHKAEGDYIALESENPQQEERLKMFHPVYTFISKFVTNFEARDLHVTIFDNGRLVYTSPPLPDIQAYAKESLRLFWEEYKRTLNPEQYPVDLSQACWDNKMENIRKVKEKIAGASLSE”, which “soluble on expression in E. coli” value is on record?
Its value is “not soluble”.

Which “soluble on expression in E. coli” value does the source give for “MLCEIECRALSTAHTRLIHDFEPRDALTYLEGKNIFTEDHSELISKMSTRLERIANFLRIYRRQASELGPLIDFFNYNNQSHLADFLEDYIDFAINEPDLLRPVVIAPQFSRQMLDRKLLLGNVPKQMTCYIREYHVDRVIKKLDEMCDLDSFFLFLHGRAGSGKSVIASQALSKSDQLIGINYDSIVWLKDSGTAPKSTFDLFTDILLMLKSEDDLLNFPSVEHVTSVVLKRMICNALIDRPNTLFVFDDVVQEETIRWAQELRLRCLVTTRDVEISNAASQTCEFIEVTSLEIDECYDFLEAYGMPMPVGEKEEDVLNKTIELSSGNPATLMMFFKSCEPKTFEKMAQLNNKLESRGLVGVECITPYSYKSLAMALQRCVEVLSDEDRSALAFAVVMPPGVDIPVKLWSCVIPVDICSNEEEQLDDEVADRLKRLSKRGALLSGKRMPVLTFKIDHIIHMFLKHVVDAQTIANGISILEQRLLEIGNNNVSVPERHIPSHFQKFRRSSASEMYPKTTEETVIRPEDFPKFMQLHQKFYDSLKNFACC” here?
Its value is “soluble”.

With “GPGSMTEHICASLVLTRGPEGLQRRLPVRLPLSGKPITIGRAIDNDVVLEMDLIFSSQWHCQMFAQKCEPETSERVEEREAASDPSRCEGRHVDCEGQTEIPVKEQYSLWLVDVGSSNGTFVNGIRVASSAPTPLHHGDVIVLGGMRDVEVGKSLPMEDLPLEIVTWRVAMEGKSEEGFGFVATPPVFLSMEFVISQARQRALGALQDSPDPKVSTTSPLKLPLKRMRHEQETGSNKLYDDGDVTPKRRIREVSYPSGEDRSGGELARRSGTVAAYLDPNEANAWEVTTNSSSDVASTTGLPCPSSKATASRGYCNSDALAEPTKEDARETRVAPAVARETVQ” as the sequence, how does the “soluble on expression in E. coli” value read?
Its value is “soluble”.

Which “soluble on expression in E. coli” value does the source give for “MAAAAVSSAKRSLRGELKQRLRAMSAEERLRQSRVLSQKVIAHSEYQKSKRISIFLSMQDEIETEEIIKDIFQRGKICFIPRYRFQSNHMDMVRIESPEEISLLPKTSWNIPQPGEGDVREEALSTGGLDLIFMPGLGFDKHGNRLGRGKGYYDAYLKRCLQHQEVKPYTLALAFKEQICLQVPVNENDMKVDEVLYEDSSTA” here?
Its value is “soluble”.

Which “soluble on expression in E. coli” value does the source give for “MSLATIKDIARRAGVIPSTVNRTLKDNPSISKETKAKVRAAMDELGYVPNSAAQMLATGLTHSLGVVLPPLTDRENISQPFYMEIITAINEEASSNSQVVSIATGATLEELVKQVELMHRQKRADGFIILYSETNDPVKDYLLKEKVPSVVVGAAVDNNDKVTYIDNDNKELGQEAVNFLRAKGHQKIGFVTDDLFGQVGQEHYQGYIEATNEFNLETYPELVFSSRVIDSLIESLQSYQLTALIVKDDLIALRFIHWLNNQGIRIPEDYAIISFNNSIFAEIMYPFLTTYDINIKELGKESVQRLLDLLKNPQTKAQKITIPFRLIERESVSMGEGHHHHHH” here?
Its value is “soluble”.

For “MAHHHHHHMQQQQQVPVGLQLMRQPYRATAEQFQRFIVGLDAVLNQWTALHLVSQHCDLSALTSMYRELVSWFQKDGEVYSDDLEIFFENFFGEARSVIVEDDSMKEVGDVLHDMYCRCCQNDFSTVERYVASLEVYRRVNPVQLSMNVGGADDEDELAGAGAMSNTYDGVVGNEEEEMETMGDGLDMKDEVEESEQRKKRRSKKRKNAYERDADGWCVVRN”, which “soluble on expression in E. coli” value is on record?
Its value is “not soluble”.

For “MPSYTLTQLASAVRNCLESGFPGRYWVSAETSGVRVGISGHCYLELLDKDTSGSQVTARMKAMIWASDYATLSGRFQRETGETFDSGLHVLVLVSVSYHEQYGLSLRILDIDPSYTMGAMARKRKEIIEELRRQGLYDLNRSLSLPRPTQRIAIVSSGAAAGFEDFIAHLSHSAEHFCFYPVLFQAVMQGAQTEASVLGALERIAYHRDSFDVVVIIRGGGAVSELAAFDSLAIGQACARFPLPILTGIGHDRDETVVDLVAYRSLKTPTAVADFLVNCQREEWKLIDDLRSRAAEGLRMMMMYCHERLIQLSLRTPAILKSSVREEHHRIKSVEDRIRLAAKQRIAFGLQQLQIASRSLPALMKSELKQNTGQLDQVAARLPLLVTANLKNYNRRLETNEQAIRLLHPNATLRRGFAIVLKDDKAIRSHSELHKGDHLVAQFADGSVSAVVDQPQKGKH”, which “soluble on expression in E. coli” value is on record?
The value was “not soluble”.

For “MPVTNMAELDAMIARVKKAQEEFATYSQEQVDKIFRAASLAANQARIPLAQQAVEESGMGIVEDKVIKNHFASEFIYNKYKDEQTCGILEEDDNLGTMTIAEPVGIICGIVPTTNPTSTAIFKSLISLKTRNGIIFSPHPRAKNSTNDAAKLVLDAAVAAGAPKDIIGWIDQPSVELSNALMKHDDIALILATGGPGMVKAAYSSGKPAIGVGAGNVPVVIDETADIKRAVASVLMSKTFDNGVVCASEQAVIVVDEVYDEVKERFASHKAHVLSKTDADKVRKVLLIDGALNAKIVGQPATAIAEMAGVKVPADTKVLIGEGLGKVSYDDAFAHEKLSPTLGMFRADNFEDAVAQAVTMVEIGGIGHTSGLYTNQDVNADRIRYFGDKMKTARILINIPTTHGGIGDLYNFNVAPSLTLGCGSWGGNSISENVGPKHLINKKTVAKRAENM”, which “soluble on expression in E. coli” value is on record?
Its value is “soluble”.

For “MAHHHHHHMDFVKELKSSQDYMNNELTYGAHNYDPIPVVLKRGKGVFVYDIEDRRYYDFLSAYSSVNQGHCHPDILNAMINQAKKLTICSRAFFSDSLGVCERYLTNLFGYDKVLMMNTGAEASETAYKLCRKWGYEVKKIPENSAKIIVCNNNFSGRTLGCVSASTDKKCKNNFGPFVPNFLKVPYDDLEALEKELQDPNVCAFIVEPVQGEAGVIVPSDSYFPGVASLCKKYNVLFVADEVQTGLGRTGKLLCTHHYGVKPDVILLGKALSGGHYPISAILANDDVMLVLKPGEHGSTYGGNPLAAAICVEALKVLINEKLCENADKLGAPFLQNLKEQLKDSKVVREVRGKGLLCAIEFKNDLVNVWDICLKFKENGLITRSVHDKTVRLTPPLCITKEQLDECTEIIVKTVKFFDDNL”, which “soluble on expression in E. coli” value is on record?
The value was “soluble”.

With “MGSDKIHHHHHHMNLTELMERIPHLREILNIVREAFKDYDDPAHDISHTFRVMENASEIASREKCDLQKAIIAALLHDIKRPHEALTGVDHAESGAEYASGLLPTMGFDISFVAEVSKAIRSHRYSGGLTPTSLTGKILQDADRLDAIGAVAIARVFSYSGKTGTPLHSLQFSPRSSYSGNSRSSINHFHEKILKIRPETFWTETARKMAEDRYSFVVEFVQRFLAEWGQI” as the sequence, how does the “soluble on expression in E. coli” value read?
The value was “not soluble”.

For “MRGSHHHHHHGMASNEFPVVLVINCGSSSIKFSVLDVATCDVLMAGIADGMNTENAFLSINGDKPINLAHSNYEDALKAIAFELEKRDLTDSVALIGHRIAHGGELFTQSVIITDEIIDNIRRVSPLAPLHNYANLSGIDAARHLFPAVRQVAVFDTSFHQTLAPEAYLYGLPWEYFSSLGVRRYGFHGTSHRYVSRRAYELLDLDEKDSGLIVAHLGNGASICAVRNGQSVDTSMGMTPLEGLMMGTRSGDVDFGAMAWIAKETGQTLSDLERVVNKESGLLGISGLSSDLRVLEKAWHEGHERARLAIKTFVHRIARHIAGHAASLHRLDGIIFTGGIGENSVLIRQLVIEHLGVLGLTLDVEMNKQPNSHGERIISANPSQVICAVIPTNEEKMIALDAIHLGNVKAPVEFA”, which “soluble on expression in E. coli” value is on record?
Its value is “soluble”.

Which “soluble on expression in E. coli” value does the source give for “EHQAILSKRLESVESDIRLEQNTMDMTRIDARKMQMTGDLIMKNSVTVGGIAGASGQYAATQERSEQQISQVNNRVASTASDEARESSRKSTSLIQEMLKTMESINQSKASALAAIAGNIRA” here?
Its value is “not soluble”.

With “MARKRIITPEKKELIRNLISEYNITSAKDLQEALKDLLGDTIQNMLEAELDEHLGYEKYESTEEAKSNYRNGYTSKTLKSSVGQVEIDIPRDRNAEFEPKIVPRYKRDISEIENKIIAMYARGMSTREINEQIQEIYGFEVSAEMVSKITDKILPEIEEWQKRPLGEVYPIVFIDAIHFSVKNDGIVGKKAIYIVLAIDIEGQKDVIGIYVGENESSKFWLSVLNDLKNRGVKDILILCADALSGIKDAINAAFPNTEYQRCIVHQIRNTLKYVSDKDRKEFARDLKRIYTAPNEKAGYDQMLEVSEKWEKKYPAAMKSWKSNWDVICPFFKYSEELRKIMYTTNTIESLNSSYRRINKSRTVFPGDQSLLKSIYLATVKITSKWTMRYKNWGLILGQLQIMFEGRI” as the sequence, how does the “soluble on expression in E. coli” value read?
The value was “not soluble”.

For “MKSPAPSRPQKMALIPACIFLCFAALSVQAEETPVTPQPPDILLGPLFNDVQNAKLFPDQKTFADAVPNSDPLMILADYRMQQNQSGFDLRHFVNVNFTLPKEGEKYVPPEGQSLREHIDGLWPVLTRSTENTEKWDSLLPLPEPYVVPGGRFREVYYWDSYFTMLGLAESGHWDKVADMVANFAHEIDTYGHIPNGNRSYYLSRSQPPFFALMVELLAQHEGDAALKQYLPQMQKEYAYWMDGVENLQAGQQEKRVVKLQDGTLLNRYWDDRDTPRPESWVEDIATAKSNPNRPATEIYRDLRSAAASGWDFSSRWMDNPQQLNTLRTTSIVPVDLNSLMFKMEKILARASKAAGDNAMANQYETLANARQKGIEKYLWNDQQGWYADYDLKSHKVRNQLTAAALFPLYVNAAAKDRANKMATATKTHLLQPGGLNTTSVKSGQQWDAPNGWAPLQWVATEGLQNYGQKEVAMDISWHFLTNVQHTYDREKKLVEKYDVSTTGTGGGGGEYPLQDGFGWTNGVTLKMLDLICPKEQPCDNVPATRPTVKSATTQPSTKEAQPTPLEHHHHHH”, which “soluble on expression in E. coli” value is on record?
Its value is “soluble”.

For “MWQQAIGDALGITARNLKKFGDRFPHVSDGSNKYVLNDNTDWTDGFWSGILWLCYEYTGDEQYREGAVRTVASFRERLDRFENLDHHDIGFLYSLSAKAQWIVEKDESARKLALDAADVLMRRWRADAGIIQAWGPKGDPENGGRIIIDCLLNLPLLLWAGEQTGDPEYRRVAEAHALKSRRFLVRGDDSSYHTFYFDPENGNAIRGGTHQGNTDGSTWTRGQAWGIYGFALNSRYLGNADLLETAKRMARHFLARVPEDGVVYWDFEVPQEPSSYRDSSASAITACGLLEIASQLDESDPERQRFIDAAKTTVTALRDGYAERDDGEAEGFIRRGSYHVRGGISPDDYTIWGDYYYLEALLRLERGVTGYWYERGR”, which “soluble on expression in E. coli” value is on record?
Its value is “soluble”.

— the DeepSol protein solubility set
